Measurements from patent US20260070976A1 (Alector, published 2026).

Columns and labels:
[1] = biological target: cynomolgus PILRA on HEK293F cells (cynomolgus monkey, UniProt A0A7N9CRU1 20-292); test: flow cytometry; HEK293F cells overexpressing cynomolgus PILRA, goat anti-human IgG Alexa Fluor 647
[2] = biological target: T1, human PILRA G78 on HEK293F cells (human, UniProt Q9UKJ1 20-303); test: hA Kd of Table 9; method not stated (Example 8: HEK293F overexpressing cells, FACS)
T1 construct: also called hA; G78 OE
T1 sequence (Q9UKJ1 20-303 R78G): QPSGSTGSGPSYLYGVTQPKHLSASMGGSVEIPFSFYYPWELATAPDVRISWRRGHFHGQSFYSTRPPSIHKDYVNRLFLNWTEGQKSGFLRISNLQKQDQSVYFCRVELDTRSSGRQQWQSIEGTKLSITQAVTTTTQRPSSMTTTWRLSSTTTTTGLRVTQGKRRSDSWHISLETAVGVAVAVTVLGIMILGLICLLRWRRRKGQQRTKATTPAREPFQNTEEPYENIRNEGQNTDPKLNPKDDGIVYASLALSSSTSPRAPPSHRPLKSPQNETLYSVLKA

[3] = biological target: T2, human PILRB on HEK293F cells (human, UniProt Q9UKJ0 20-227); test: hB Kd of Table 9; method not stated (Example 8: HEK293F overexpressing cells, FACS)
T2 construct: also called hB
T2 sequence (Q9UKJ0 20-227): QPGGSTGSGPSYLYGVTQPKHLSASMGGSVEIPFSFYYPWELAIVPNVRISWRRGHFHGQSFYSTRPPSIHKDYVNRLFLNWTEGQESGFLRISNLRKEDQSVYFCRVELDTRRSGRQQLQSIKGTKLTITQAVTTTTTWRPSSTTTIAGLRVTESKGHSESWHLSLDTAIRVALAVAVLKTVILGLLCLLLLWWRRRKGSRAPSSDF

[4] = biological target: T3, recombinant cynomolgus PILRA (SEQ ID NO:120) (cynomolgus monkey); test: SPR, Carterra LSA, antibody amine-coupled, kinetic fit
T3 construct: also called cyno PILRA
T3 sequence (chain, as listed by the source limits assumed): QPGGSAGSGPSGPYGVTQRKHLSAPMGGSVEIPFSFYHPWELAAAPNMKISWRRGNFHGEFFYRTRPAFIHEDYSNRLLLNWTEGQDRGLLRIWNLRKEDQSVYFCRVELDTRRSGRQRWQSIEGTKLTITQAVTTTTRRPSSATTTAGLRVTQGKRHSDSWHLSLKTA

recombinant human PILRA [5] = biological target: T4, recombinant human PILRA (human, UniProt Q9UKJ1 20-197); test: as above
T4 sequence (Q9UKJ1 20-197 limits assumed): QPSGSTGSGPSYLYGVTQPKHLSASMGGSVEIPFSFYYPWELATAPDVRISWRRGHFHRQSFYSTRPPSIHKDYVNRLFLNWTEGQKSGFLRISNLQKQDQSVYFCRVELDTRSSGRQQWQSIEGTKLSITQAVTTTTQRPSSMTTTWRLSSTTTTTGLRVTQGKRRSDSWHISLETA

[6] = biological target: T5, cell surface PILRA on human monocytes (human, UniProt Q9UKJ1 20-303); test: flow cytometry; Alexa Fluor 647-conjugated antibody on human CD14+ monocytes (second donor sample), Fc receptors blocked, 30 min on ice
T5 construct: Native PILRA on CD14+ monocytes of healthy donors; also called human PILRA; hu mono
T5 sequence (Q9UKJ1 20-303): as the sequence (Q9UKJ1 20-303 R78G) above, with G59R counted along it
Protocol: Anti-human PILRA antibodies X0 (PA-29) and its affinity matured variants were tested for their abilities to bind cell surface PILRA on human and cynomolgus monocytes. CD14+ monocytes were isolated from healthy human donors using a RosetteSep Human Monocyte Enrichment Cocktail kit (StemCell). Cynomolgus white blood cells were collected from cynomolgus whole blood. In both human and cynomolgus samples, the Fc receptor on the tested monocytes was blocked and the monocytes were treated with Alexa Fluor 647-conjugated PILRA antibodies for 30 minutes on ice. A dose response curve of antibodies X0 (PA-29), X1, X2, X7, X11, X12, X13, X14, X16, X18, and X20 was tested for binding to cell surface PILRA in human and cynomolgus monocytes, and antibodies bound to PILRA in a dose response manner. In another sample of human donor monocytes, a dose response curve of antibodies X0 (PA-29), X1, X2, X11, X13, X18, X29 (PA-43), and X34 (A6) was tested for binding to cell surface PILRA in human and cynomolgus monocytes, and antibodies bound to PILRA in a dose response manner.

recombinant human PILRB = recombinant human PILRB (human, UniProt Q9UKJ0 20-191); test: SPR, Biacore T200, antibody captured by anti-Fab
Chain of recombinant human PILRB (Q9UKJ0 20-191 limits assumed): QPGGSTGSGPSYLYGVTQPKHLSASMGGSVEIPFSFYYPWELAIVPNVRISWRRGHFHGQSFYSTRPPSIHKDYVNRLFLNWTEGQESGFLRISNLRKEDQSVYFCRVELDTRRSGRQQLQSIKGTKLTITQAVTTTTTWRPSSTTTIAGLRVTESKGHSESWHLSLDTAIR
Protocol: (§1) A subset of these antibodies was further evaluated using the Biacore T200 (Cytiva). Anti-PILRA antibodies were diluted to 10 μg/mL and captured using an anti-Fab (Cytiva, #28958325) surface on a CM4 chip, that was prepared by amine coupling according to the manufacturer's protocol. Human PILRA and cynomolgus PILRB were diluted in running buffer to 130 nM, and diluted 4-fold serially, twice, to 8 nM. Human PILRB was similarly diluted from 260 nM to 16 nM. These analytes were injected and allowed 2 minutes of association, followed by dissociation for 5 minutes.
(§2) Data were analyzed using Biacore evaluation software to generate kinetic constants. The equilibrium dissociation constants (KD) were calculated from the fitted association and dissociation rate constants (k-on and k-off) for each of the anti-PILRA antibodies. These Kn values are indicated with asterisks in Table 8 below.

recombinant human PILRA [7] = biological target: T4, recombinant human PILRA; test: SPR, Biacore T200, antibody captured by anti-Fab
Protocol: as §1, §2

[8] = biological target: T1, human PILRA G78 on HEK293F cells; test: FACS on HEK293F cells, binding on human PILRA (hA) over human PILRB (hB)
Protocol: Conditioned media samples containing the tested anti-PILRA antibodies were assessed for binding to HEK293F cells overexpressing human PILRA (hA), human PILRB (hB), and cynomolgus PILRA (cA) by FACS. The conditioned media containing the tested antibodies were incubated with the cells for 30 min at 4° C., washed twice, and then detected with goat anti-human IgG secondary antibody (Alexa Fluor 647) at 1:1000 dilution. The cells were analyzed by flow cytometry on FACS Canto II, and for all cell lines, the reported MFI values were calculated for each conditioned media. These antibodies were evaluated for nonspecific binding using a baculovirus particle (BVP) assay (Jain T., Sun T., Durand S., Hall A., Houston N. R., Nett J. H., Sharkey B., Bobrowicz B., Caffry L, Yu Y., et al. Biophysical properties of the clinical-stage antibody landscape. Proc. Natl. Acad. Sci. USA. 2017; 114:944-949. Doi: 10.1073/pnas.1616408114.). The BVP scores are listed in Table 9, and the higher the score the more nonspecific binding that occurred.

Chain of cynomolgus PILRA on HEK293F cells (A0A7N9CRU1 entry or part of it): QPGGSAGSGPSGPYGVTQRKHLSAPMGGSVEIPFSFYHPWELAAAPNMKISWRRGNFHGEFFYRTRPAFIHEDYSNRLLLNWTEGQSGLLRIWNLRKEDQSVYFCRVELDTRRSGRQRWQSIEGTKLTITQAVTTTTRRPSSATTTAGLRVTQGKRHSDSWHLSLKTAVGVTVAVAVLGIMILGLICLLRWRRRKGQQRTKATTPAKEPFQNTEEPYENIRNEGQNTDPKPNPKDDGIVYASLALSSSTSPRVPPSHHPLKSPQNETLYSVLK

B1: X13 (antibody, human IgG4, V domains shown)
VH: QVQLVQSGAEVKKPGSSVKVSCKASGYNFLHYDVNWVRQAPGQGLEWMGGIIPIFGTANYAQKFQGRVTITADESTSTAYMELSSLRSEDTAVYYCATAVGAGWFDPWGQGTLVTVSS
VL: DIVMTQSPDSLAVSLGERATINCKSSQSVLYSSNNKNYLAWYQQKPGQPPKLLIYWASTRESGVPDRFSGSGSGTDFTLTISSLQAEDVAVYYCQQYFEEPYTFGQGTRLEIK
notes: conditioned media in the HEK293F assays
EC50 (read off the curve) [1]: ~0.5 µg/mL | Kd [2]: 0.2 nM | Kd [3]: 51.5 nM | Kd [4]: 0.3 nM | Kd (recombinant human PILRA [5]): 1.1 nM | EC50 (read off the curve) [6]: ~0.1 µg/mL | Kd (recombinant human PILRB): 9.1 nM | Kd (recombinant human PILRA [7]): 0.2 nM | hA/hB binding ratio on HEK293F [8]: 20.3
